What was measured:
CD137 [1] = assay: Binding to recombinant CD137 and CD137 on activated T cells; design: species or system human
Source text: This was expected given that CD137 is known to function as a co-stimulatory T cell receptor. […] This property might prevent the potential of dual independent activation of CD137 potentially accounting for its distinct pharmacology and toxicology profile among this class of therapeutic antibodies.

human blood = assay: Cytokine release in human blood ex vivo; type: cell-based
[2] = test system: L5178-S murine T cell lymphoma; assay: L5178-S murine T cell lymphoma syngeneic model; type: in vivo, DBA/2 mice; conditions: 20 mg/kg i.p. once every 3 days
Source text: The animals were randomized and treatment started when tumor volumes reach 50-80 mm^3, or on the day of cell inoculation (FIGS. 17A and 17C). Each group consisted of 8 tumor-bearing mice. […] Tumor growth and animal body weight were monitored every 2-3 days.

[3] = Clinical pharmacokinetics, serum ADG106 by ELISA, non-compartmental analysis
Protocol: Blood samples for PK analysis were collected at Cycle 1 (Day 1: pre-dose and 2, 6, 12, and 24 hours after the end of infusion; once on Days 8, 15, and 22), Day 1 pre-dose and 2 hours after the end of infusion of subsequent cycles, and at the End of Treatment. […] PK parameters were estimated using a non-compartmental method with WinNonlin.

[4] = test system: CT-26 (colon carcinoma), H22 (liver cancer), EMT6 (breast cancer); assay: Single agent efficacy in syngeneic mouse tumor models (CT-26, H22, EMT6); type: in vivo
CD137 [5] = target: CD137 (Homo sapiens, UniProt Q07011); assay: Cellular NFκB reporter gene assay (CD137-expressing NFκB-Luc Jurkat reporter cells); type: cell-based; design: expressed in transfected cells; host or cells: NFκB-Luc Jurkat reporter cells (with or without co-cultured CHO-K1 cells expressing human FcγRIIb)
CD137 (Homo sapiens, UniProt Q07011), sequence (Q07011 24-255): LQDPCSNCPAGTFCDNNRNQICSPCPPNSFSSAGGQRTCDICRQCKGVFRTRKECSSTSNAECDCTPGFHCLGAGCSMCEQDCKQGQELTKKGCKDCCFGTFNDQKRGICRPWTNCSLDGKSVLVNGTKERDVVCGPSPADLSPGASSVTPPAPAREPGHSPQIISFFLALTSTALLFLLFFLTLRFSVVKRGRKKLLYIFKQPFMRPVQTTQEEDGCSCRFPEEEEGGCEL
Protocol: The CD137-expressing NFκB-Luc Jurkat reporter cells were stimulated with the anti-CD137 antibodies in the absence (left panel) or presence (right panel) of co-cultured CHO-K1 cell expressing human FcγRIIb. Luciferase activity was measured by bioluminescence assay.

## ADG106: fully human agonistic anti-CD137 monoclonal IgG4 antibody; heavy chain SEQ ID NO: 10, light chain SEQ ID NO: 11
CD137 [1]
  affinity to CD137 on activated cynomolgus monkey and human T cells: low nanomolar affinity
Human blood
  cytokine (IL-2, IL-4, IL-6, IL-10, TNF-α, IFN-γ, IL-17) release: did not stimulate cytokine
[2]
  antitumor activity: has antitumor activity
[3]; Chinese study, 0.1 mg/kg IV
  AUC(0-t): 255 µg·h/mL
  CLz: 8.88 mL/day/kg
[3]; Chinese study, 0.5 mg/kg IV
  AUC(0-t): 1761 µg·h/mL
  CLz: 6.72 mL/day/kg
  T½: 146 h
[3]; Chinese study, 1.5 mg/kg IV
  AUC(0-t): 4162 µg·h/mL
  CLz: 7.92 mL/day/kg
  T½: 180 h
[3]; Chinese study, 3 mg/kg IV
  AUC(0-t): 10016 µg·h/mL
  CLz: 6 mL/day/kg
  T½: 214 h
[3]; Chinese study, 5 mg/kg IV
  AUC(0-t): 20966 µg·h/mL
  CLz: 5.28 mL/day/kg
  T½: 173 h
[3]; Chinese study, 10 mg/kg IV
  AUC(0-t): 39658 µg·h/mL
  CLz: 5.52 mL/day/kg
  T½: 132 h
[3]; US study, cycle 1, 0.03 mg/kg IV, n=1
  AUC(0-t): 0.626 µg·h/mL
[3]; US study, cycle 1, 0.1 mg/kg IV, n=1
  AUC(0-t): 0.668 µg·h/mL
[3]; US study, cycle 1, 0.3 mg/kg IV, n=1
  AUC(0-t): 1.387 µg·h/mL
[3]; US study, cycle 1, 1 mg/kg IV, n=3
  AUC(0-t): 3.8767 µg·h/mL
[3]; US study, cycle 1, 3 mg/kg IV, n=3
  AUC(0-t): 18.42 µg·h/mL
[3]; doses ≥0.5 mg/kg
  mean half-life: around 7 days
[4]; mouse, in vivo
  single agent efficacy in CT-26, H22 and EMT6 syngeneic models: single agent anti-tumor efficacy
[4]; syngeneic mouse liver and breast cancer models
  median effective dose (ED50): approximately 1 mg/kg
CD137 [5]; crosslinking-dependent, in vitro
  concentration saturating activation of CD137 receptor signaling: 1 µg/mL
CD137 [5]; nonlinearly regressed concentration-effect curve
  EC80 of NFκB signaling activation: ≤ 1.8 µg/mL
CD137 [5]; with crosslinking
  human CD137 agonism following crosslinking: function as agonists

From patent publication US20230133118A1, “COMPOSITIONS AND METHODS FOR TREATING CANCER” (Adagene AG, priority 2020, published 2023)
